Assay [1] concerns the target T1, human TL1A (human, UniProt O95150 72-251, limits assumed).
T1 construct: also called tumor necrosis factor-like cytokine 1A; TNFSF15
T1 sequence (looked up): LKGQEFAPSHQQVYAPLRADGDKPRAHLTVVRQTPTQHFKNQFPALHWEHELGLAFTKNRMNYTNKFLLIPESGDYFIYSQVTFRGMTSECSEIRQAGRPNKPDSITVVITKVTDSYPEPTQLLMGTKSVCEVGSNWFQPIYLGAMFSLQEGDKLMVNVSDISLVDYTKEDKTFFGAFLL
The assay can be described thus: ELISA titration on plate-coated human TL1A, unpurified culture supernatant. Background: ELISA stands for enzyme-linked immunosorbent assay.

The target in assay [2] is T2, TL1A in human blood (human, UniProt O95150 72-251, limits assumed).
T2 sequence (looked up): T1 sequence (looked up)
Put plainly: cell-based or functional assay.

Positions count from the first letter of the chain named.

The source of these data is patent US20260216326A1 (PROMETHEUS BIOSCIENCES, published 2026).

B1: A181 (antibody, IgG1, V domains shown)
VH: QVQLVQSGAEVKKPGASVKVSCKASGFDIQDTYMHWVRQRPGQGLEWIGRIDPASGHTKYDPKFQVRATITTDTSTSTAYLELSSLRSEDTAVYYCARSGGLPDVWGQGTTVTVSS
VL: EIVLTQSPGTLSLSPGERATLSCRASSSVSYMYWYQQKPGQAPRLLIYATSNLASGIPDRFSGSGSGTDFTLTISRLEPEDFAVYYCQQWEGNPRTFGGGTKLEIK
Usually Kd stands for the free concentration of one partner at which half of the binding sites on the other are occupied at equilibrium, for simple one-to-one binding. A low value points to a tighter complex. As to B1, the Kd in assay [1] worked out at 0.06 nM. In other words, the picomolar range.

B2: A147 (antibody, IgG1, V domains shown)
VH: QVQLVQSGAEVKKPGASVKVSCKASGFDIQDTYMHWVKQRPGQGLEWMGRIEPASGHIKYDPKFQGRVTMTRDTSTSTVYMELSSLRSEDTAVYYCARSGGLPDWWGQGTTVTVSS
VL: B1 VL with L45P
For orientation: % Inhibition means the change of the read-out against control, counted positive when it falls. A higher % Inhibition goes with strong suppression. Consider B2, for which, in assay [2], the “% Inhibition at 1 nM Ig; interferon gamma release in human blood” value (from here on “% Inhibition at 1 nM Ig”) amounted to 51.3% and the “% Inhibition at 10 nM Ig; interferon gamma release in human blood” value (from here on “% Inhibition at 10 nM Ig”) was found to be 72.4%.

B3: A222 (antibody, IgG1, V domains shown)
VH: B1 VH with R38K, I48M, A68V, T72R
VL: B1 VL with L45P
Consider B3, for which binding in assay [1] was put at a Kd of 0.06 nM.

B4: A217 (antibody, IgG1, V domains shown)
VH: B2 VH with E52D, I58T, G66V, M70I, W105V
VL: B1 VL with L45P
In the case of B4, in assay [2], the “% Inhibition at 1 nM Ig” value turned out to be 46% and the “% Inhibition at 10 nM Ig” value stood at 72.2%. The affinity in assay [1], expressed as Kd, was 0.043 nM.

B5: A223 (antibody, IgG1, V domains shown)
VH: B1 VH with Q1E
VL: B1 VL
B5 returned a Kd in assay [1] of 0.062 nM.

B6: A211 (antibody, IgG1, V domains shown)
VH: B1 VH with R38K
VL: B1 VL with L45P
Take B6: in assay [1], the equilibrium dissociation constant (Kd) was found to be 0.058 nM.

B7: A189 (antibody, IgG1, V domains shown)
VH: B1 VH with R38K, A68V, I70M
VL: B1 VL
For the molecule B7, the affinity in assay [1], expressed as Kd, was 0.076 nM. The Kd values of the last two molecules are within 1.5-fold of each other.

B8: A183 (antibody, IgG1, V domains shown)
VH: B1 VH with R38K, I48M
VL: B1 VL
Molecule B8 displayed a Kd in assay [1] of 0.065 nM. This Kd and that of the molecule before are within 1.5-fold of each other.

B9: A188 (antibody, IgG1, V domains shown)
VH: B1 VH with R38K, A68V
VL: B1 VL
B9 registered a Kd in assay [1] of 0.063 nM.

B10: A220 (antibody, IgG1, V domains shown)
VH: B1 VH with R38K, I48M, A68V, I70M, T72R
VL: B1 VL with L45P, L46W
Turning to B10, in assay [2], the “% Inhibition at 1 nM Ig” value was found to be 36.9% and the “% Inhibition at 10 nM Ig” value worked out at 63.2%. The Kd in assay [1] is 0.05 nM.

B11: A215 (antibody, IgG1, V domains shown)
VH: B1 VH with I48M, A68V
VL: B1 VL with L45P
B11 came in with a Kd in assay [1] of 0.048 nM.

B12: A194 (antibody, IgG1, V domains shown)
VH: B1 VH with Q1E
VL: B1 VL with L45P, L46W
Take B12: in assay [1], the equilibrium dissociation constant (Kd) stood at 0.051 nM.

B13: A200 (antibody, IgG1, V domains shown)
VH: B1 VH with Q1E
VL: B1 VL with L45P
As to B13, the affinity in assay [1], expressed as Kd, was 0.052 nM.

B14: A224 (antibody, IgG1, V domains shown)
VH: B2 VH with Q1E, R40A
VL: B1 VL with L45P
B14 returned a dissociation constant (Kd) in assay [1] of 0.076 nM. This Kd and that of the molecule before are within 1.5-fold of each other.

B15: A186 (antibody, IgG1, V domains shown)
VH: B1 VH with R38K, I70M
VL: B1 VL
In turn, B15 displayed a Kd in assay [1] of 0.067 nM.

B16: A210 (antibody, IgG1, V domains shown)
VH: B2 VH with Q1E, K38R, R40A, V79A
VL: B1 VL
In turn, B16 registered a Kd in assay [1] of 0.07 nM. The Kd values of the last two molecules are within 1.5-fold of each other.

B17: A202 (antibody, IgG1, V domains shown)
VH: B2 VH with Q1E, K38R, R40A, V68A
VL: B1 VL with L45P
B17 had a Kd in assay [1] of 0.059 nM.

B18: A214 (antibody, IgG1, V domains shown)
VH: B1 VH with I48M, A68V, T72R
VL: B1 VL with L45P
For the molecule B18, the Kd in assay [1] is 0.051 nM.

B19: A201 (antibody, IgG1, V domains shown)
VH: B2 VH with Q1E, K38R, R40A, V68A, M70I, R72T
VL: B1 VL with L45P
In the case of B19, in assay [1], the Kd was found to be 0.058 nM.

B20: A209 (antibody, IgG1, V domains shown)
VH: B2 VH with Q1E, R40A
VL: B1 VL
As for B20, binding in assay [1] was put at a Kd of 0.058 nM.

B21: A204 (antibody, IgG1, V domains shown)
VH: B2 VH with Q1E, K38R, R40A, V79A
VL: B1 VL with L45P
In assay [1], B21 yielded a Kd of 0.053 nM.

B22: A191 (antibody, IgG1, V domains shown)
VH: B1 VH with R38K, L81M
VL: B1 VL
In assay [1], B22 came in with a Kd of 0.057 nM.

B23: A206 (antibody, IgG1, V domains shown)
VH: B1 VH with Q1E
VL: B1 VL
Take B23: the Kd in assay [1] was 0.05 nM.

B24: A193 (antibody, IgG1, V domains shown)
VH: B1 VH with Q1E, R38K
VL: B1 VL with L45P, L46W
In assay [1], B24 gave a Kd of 0.055 nM. This Kd and that of the molecule before are within 1.5-fold of each other.

B25: A196 (antibody, IgG1, V domains shown)
VH: B2 VH with Q1E, K38R, R40A, V68A
VL: B1 VL with L45P, L46W
Regarding B25, in assay [1], the affinity, expressed as Kd, was 0.054 nM.

B26: A187 (antibody, IgG1, V domains shown)
VH: B1 VH with R38K, A68V, T72R
VL: B1 VL
In assay [1], B26 returned a Kd of 0.056 nM.

B27: A203 (antibody, IgG1, V domains shown)
VH: B2 VH with Q1E, R40A
VL: B1 VL with L45P
B27: the affinity in assay [1], expressed as Kd, was 0.062 nM.

B28: A199 (antibody, IgG1, V domains shown)
VH: B1 VH with Q1E, R38K
VL: B1 VL with L45P
B28 gave a Kd in assay [1] of 0.05 nM.

B29: A190 (antibody, IgG1, V domains shown)
VH: B1 VH with R38K, A79V
VL: B1 VL
The molecule B29 had a Kd in assay [1] of 0.057 nM.

B30: A185 (antibody, IgG1, V domains shown)
VH: B1 VH with R38K, I70M, T72R
VL: B1 VL
The molecule B30 showed a dissociation constant Kd in assay [1] of 0.056 nM.

B31: A205 (antibody, IgG1, V domains shown)
VH: B1 VH with Q1E, R38K
VL: B1 VL
For the molecule B31, the Kd in assay [1] is 0.055 nM.

B32: A195 (antibody, IgG1, V domains shown)
VH: B2 VH with Q1E, K38R, R40A, V68A, M70I, R72T
VL: B1 VL with L45P, L46W
B32 returned a Kd in assay [1] of 0.056 nM.

B33: A182 (antibody, IgG1, V domains shown)
VH: B1 VH with R38K, R40A
VL: B1 VL
B33 yielded a Kd in assay [1] of 0.067 nM.

B34: A218 (antibody, IgG1, V domains shown)
VH: B1 VH with R38K, I48M, A68V, T72R, L81M
VL: B1 VL with L45P
For B34, the affinity in assay [1], expressed as Kd, was 0.051 nM.

B35: A197 (antibody, IgG1, V domains shown)
VH: B2 VH with Q1E, R40A
VL: B1 VL with L45P, L46W
Take B35: in assay [1], the Kd came to 0.054 nM.

B36: A192 (antibody, IgG1, V domains shown)
VH: B1 VH with R38K, A79V, L81M
VL: B1 VL
Molecule B36 showed a Kd in assay [1] of 0.055 nM.

B37: A184 (antibody, IgG1, V domains shown)
VH: B1 VH with R38K, T72R
VL: B1 VL
Turning to B37, the Kd in assay [1] came out at 0.061 nM. The Kd values of the last two molecules are within 1.5-fold of each other.

B38: A216 (antibody, IgG1, V domains shown)
VH: B1 VH with A68V, T72R
VL: B1 VL with L45P
Turning to B38, the Kd in assay [1] was found to be 0.049 nM.

B39: A198 (antibody, IgG1, V domains shown)
VH: B2 VH with Q1E, K38R, R40A, V79A
VL: B1 VL with L45P, L46W
In assay [1], B39 came in with a dissociation constant (Kd) of 0.053 nM.
